Results taken from the DeepSol protein solubility set.

test: soluble on expression in E. coli; label from the status in PepcDB or PDB records

Row | Sequence | soluble on expression in E. coli
1 | MGLLALGTPLQWFESRTYNEHIRDEGIEQLLYIFQAAGKRDNDPLFWGDELEYMVVDFDDKERNSMLDVCHDKILTELNMEDSSLCEANDVSFHPEYGRYMLEATPASPYLNYVGSYVEVNMQKRRAIAEYKLSEYARQDSKNNLHVGSRSVPLTLTVFPRMGCPDFINIKDPWNHKNAASRSLFLPDEVINRHVRFPNLTASIRTRRGEKVCMNVPMYKDIATPETDDSIYDRDWFLPEDKEAKLASKPGFIYMDSMGFGMGCSCLQVTFQAPNINKARYLYDALVNFAPIMLAFSAAAPAFKGWLADQDVRWNVISGAVDDRTPKERGVAPLLPKYNKNGFGGIAKDVQDKVLEIPKSRYSSVDLFLGGSKFFNRTYNDTNVPINEKVLGRLLENDKAPLDYDLAKHFAHLYIRDPVSTFEELLNQDNKTSSNHFENIQSTNWQTLRFKPPTQQATPDKKDSPGWRVEFRPFEVQLLDFENAAYSVLIYLIVDSILTFSDNINAYIHMSKVWENMKIAHHRDAILFEKFHWKKSFRNDTDVETEDYSISEIFHNPENGIFPQFVTPILCQKGFVTKDWKELKHSSKHERLYYYLKLISDRASGELPTTAKFFRNFVLQHPDYKHDSKISKSINYDLLSTCDRLTHLDDSKGELTSFLGAEIAEYVKKNKPSIESKCDKLAAALGHHHHHH | soluble
2 | MGLMKFQLFIQPKLDVLQGNIVEYEILLRDDSAVPRFPLSELEAVLADEELYLAFSEWFSEAFLDVLKKYPNDRFAINIAPQQLFYIETLHWLDKLKSESHRITVEMTEDIFDVPGHKRHLNANDKNAFILNKIKVIHGLGYHIAIDDVSCGLNSLERVMSYLPYIIEIKFSLIHFKNIPLEDLLLFIKAWANFAQKNKLDFVVEGIETKETMTLLESHGVSIFQGYLVNKPFPV | soluble
3 | MGLRRGWTPPWPLDLGIVLGPLRRGPGDPTFRTTPDGAVWRASRTPAGPGTLRVALRGGAVEAEAWGPGAEWLLHQLPEMLGSADDPDAFEPRHRLVAVTRHRRPGLRLTRTGLVLESLIPSVLEQKVTADEAYRAWRLLVRKFGEPAPGPVEGRMHVMPEPRTWALIPSWEWHRAGVDNKRASTILRAVRVAARLEQAMGMEPAQAQARLEVVSGIGPWTSAETVQRSHGAADSVTVGDLHLPRIVGYALAGDRDADDAAMLELLAPYAGQRHRAARLILLSGRTPPAAALEHHHHHH | not soluble
4 | MGLSGFHSFLCCRSRDYHLVINTLIHTVMTMDITKSVAFTGHRSERILQVRMLYLYLDIVSQVKRLYSLGYRYFLSGMAEGFDLLAAQAVTALKAEYTDIRLIAVVPFSRQSNRYRPENKSLYDRIMKTADETVILREDYRKGCFHHRNDYLIDNSEIVLAYWDKQPYGGTYYTVGKARMVNRIIINLYK | not soluble
5 | MGLYDKYARLAGERLQFSDNGLTPFGTCIDEVYSATEGRIGNKKVILAGTNNYLGLTFNHDAISEGQAALAAQGTGTTGSRMANGSYAPHLALEKEIAEFFNRPTAIVFQPVIPLI | not soluble
6 | MGMVGFRRSRHRRLGAGCGRAGGCMSGVEVITFGCRLNTYESEVMRAEAEKAGLNNAVLVNTCAVTGEAVRQARQAIRRARRDNPHARIIVTGCAAQTEKQTFADMPEVDAVLGNEEKLKSASYRALPDFGVSAEEKLRVNDIMSIKATAPQMVKHIDGHVRAFIQVQNGCDHRCTFCIIPYGRGNSRSVPMGAVVDQARRLTESGYCEIVLTGVDATSYGADLPGEPSLGYLAKTLLKQVPDIIRLRLSSIDSIEADHHLMDLIADEPRFMPHLHLSLQHGDDMILKRMKRRHLRADAIRFCNEVRSLRPDIAFGADMIAGFPTETEEMLENAATLAEECGISSLHVFPYSPREGTPAVRMPQLDRALVKERAGRLRARGEALKQAHLQNMVGSVQTVLVENSGFAHTDNFTLVAAPDLAPRTLAQVAITGHNGKHLNMKLLAADAALEHHHHHH | not soluble
7 | MGNCWFKGNPYFNRVSSNATKSESPKMQSPSERKEKDDSMLPSNAKEVEELRRESARNPLIAFTFEELKRITKNFRQDSLLGGGGFGRVYKGYITSDLREGLTIEEPLRVAVKVHDGDNSFQGHREWLAEVIFLGQLSHPNLVKLIGYCCEDDHRVLVYEFMPLGSVESHLFSRVMVPLPWFTRMKIALGAAKGLAFLHEAEKPVIYRDFKTSNILLDEEYNAKLSDFGLAKDGPVGDKSHVSTRIMGTYGYAAPEYIMTGHLTAMSDVYSYGVVLLELLTGRKSLDKSRPVREQTLADWAFPMLIQKKKVLGIVDPRLAEDYPVKAVQKTAMLAYHCLNRNPKARPLMRDIVATLEPLQQMEEDPSISLVSGTEV | soluble
8 | MGNRLKAARSPYLLAHAEDPVDWYPFGEEAFRKAQAEDKPIFLSVGYASCHWCHVMHRESFQDEEVARLLNAHFVPVKVDREERPDVDAAYMRALVSLTGQGGWPMSLFLTPEGKPFFGGTYFPKEDRMGLPGFKRVLVAVAEAWAGKREAILEEAERLTRALWKSLSPPPGPLPEGAEEEALDHLERAFDPEWGGFLPAPKFPQGPLLLYLLARAWEGEERAARLLRPTLRAMALGGVYDQVGGGFHRYSVDRFWRLPHFEKMLYDNALLARVYLGAYKLFGEDLFLRVARETLDWLLSMQRREGGFHTALDAESEGEEGRYYTWTEAELREALGEDFPLARRYFALGEDLGERSVLTAWGEAEARKALGEGFFAWREGVRAKLQGARRRRMPPALDDKVLADWSALAVRALAEAGRLFGEERYLEAAKRGARFLLAHMYREGLLRHTWRGSLGEEAYLSDQAFAALAFLELYAATGEWPYLDWAQRLAEAGWRLFREGPSLPLPAKEVEEGALPSGESALAEALVRLGAVFGGDYRERAEEVLAEKARWLARYPHALPGALLAKALWERGTELALPLPSPLLEAARGAFLPLTQLVLGPAGALPALEGREAGKAYVCRRGVCLLPVDRWEEVEARVRGDD | soluble
9 | MGNSHSVTTALHSVLKQREIKVSTRTLETFIKEIERISPWYACSGSLTLSSWEKLREDLAKEQQNGKLKAGTMPLWKLVRSCLEDERCRPAIITGQAILEEAQDSMAETEWCERLGAPKKGKCAQSKKPFQRP | soluble
10 | MGPLWLDVAGYELSAEDRAILAHPTVGGVILFGRNYHDNQQLLALNKAIRQAAARPILIGVDQEGGRVQRFREGFSRIPPAQYYARAENGVELAEQGGWLMAAELIAHDVDLSFAPVLDMGFACKAIGNRAFGEDVQTVLKHSSAFLRGMKAVGMATTGKHFPGHGAVIADSHLETPYDERETIAQDMAIFRAQIEAGVLDAMMPAHVVYPHYDAQPASGSSYWLKQVLREELGFKGIVFSDDLSMEGAAVMGGPVERSHQALVAGCDMILICNKREAAVEVLDNLPIMEVPQAEALLKKQQFSYSELKRLERWQQASANMQRLIEQFSEHHHHHHHHHH | soluble
11 | MGQAGKQVAPVKCKGWAVEKPALKWSTDAVRLSDVTVPAPDPTQIRVRVYAASINPVDWKRVMFPASGSGPGVAGSALKGFKGMHHKPPNYPYPYVVGVDGAGEVESVGRKVTGLKAGDRVMFHSSLTNAHGGSLCEYAVMEESVAVPIPADGARPFSYEEAAAIPCATWTAYVALFDKLRIEPGRSIFVDGASGAVGSCAVQLAHHMGLYVFASCSPSNADYVRSIGADQVLNYHDGIEMVDQILDATEGYGVDYYLAVTNTQDAESFTDALRFGGAVCLLSGVLIPNSNVLFRRQLSVHYVFLNGLHGHPLTRPQLRYIGDQVAKLYQSGAFRLD | not soluble
12 | MGQLVDGVWHDTWYETKSTGGHFKRSESAFRNWVTPDGAPGLTGKGGFPAQSGRYHLYVSLACPWAHRTLLMRQLKGLEDHIAVSVVHPLMLDHGWTFGTDFEAATGDSLYQHEFLYQLYLHAKPDYSGRVTVPVLWDTEQHTVVSNESADIIRMLNSAFDGVGAIAGDYYPEALRTQIDELNSWIYDKVNNGVYKAGFATTQSAYDESASTVFAALSDLETILAKQRYLTGEQLTEADLRLWTTLIRFDPVYHTHFKCDKYRLSDYPNLFGFLRDIYQMPGIAETVDMAHIRHHYYRSHGLEHHHHHH | not soluble
13 | MGQTTEAQSLKYGEREIENGELITFPNPRPGRRYTINITLPEYTCKCPFSGYPDFATIYITYVPDQKVVELKAIKLYINSYRDRYISHEEAVNQILDDLVAACDPLEMTIKGDYQPRGNVHTVIEVTHTKEQA | not soluble
